# Key:
# [1] = target: T1, His-tagged soluble mouse FcRn (recombinant, insect cell produced) (mouse, UniProt Q61559 22-290); experiment: method not stated; neutral pH
# [2] = target: T2, C-terminus biotinylated monomeric human CD32a^H (FcγRIIa, histidine-131 variant), recombinant (human, UniProt P12318 34-218, limits assumed, C-terminus biotinylated (site-specific)); experiment: SPR, estimated steady state KD, monomeric IgG, pH 7.4
# T2 construct: Captured on neutravidin (ELISA plates or CM5 chips); Bought reagent; also called CD32a-H131
# T2 sequence (looked up): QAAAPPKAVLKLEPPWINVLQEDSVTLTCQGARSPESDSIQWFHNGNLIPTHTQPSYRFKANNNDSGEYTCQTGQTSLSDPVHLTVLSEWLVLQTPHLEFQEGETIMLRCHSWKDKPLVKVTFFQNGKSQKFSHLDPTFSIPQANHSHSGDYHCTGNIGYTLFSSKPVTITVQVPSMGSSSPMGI
# [3] = target: T1, His-tagged soluble mouse FcRn …; experiment: method not stated; acidic pH
# T1 sequence (Q61559 22-290): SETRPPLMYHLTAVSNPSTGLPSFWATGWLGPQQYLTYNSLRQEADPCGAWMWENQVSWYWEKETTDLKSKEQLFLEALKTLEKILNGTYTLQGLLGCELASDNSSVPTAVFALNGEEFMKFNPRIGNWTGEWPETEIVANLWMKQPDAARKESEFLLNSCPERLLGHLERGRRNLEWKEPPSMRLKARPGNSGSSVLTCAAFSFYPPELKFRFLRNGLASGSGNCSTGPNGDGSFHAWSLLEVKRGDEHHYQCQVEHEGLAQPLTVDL
Binder,Kd [1] [nM],Kd [2] [nM],Kd [3] [nM]
anti-NIP hIgG1-M252Y/S254T/T256E/H433K/N434F (hIgG1^MST/HN) (antibody) ASTKGPSVFPLAPSSKSTSGGTAALGCLVKDYFPEPVTVSWNSGALTSGVHTFPAVLQSSGLYSLSSVVTVPSSSLGTQTYICNVNHKPSNTKVDKKVEPKSCDKTHTCPPCPAPELLGGPSVFLFPPKPKDTLYITREPEVTCVVVDVSHEDPEVKFNWYVDGVEVHNAKTKPREEQYNSTYRVVSVLTVLHQDWLNGKEYKCKVSNKALPAPIEKTISKAKGQPREPQVYTLPPSRDELTKNQVSLTCLVKGFYPSDIAVEWESNGQPENNYKTTPPVLDSDGSFFLYSKLTVDKSRWQQGNVFSCSVMHEALKFHYTQKSLSLSPGK,7.4,2800,1.2
anti-NIP hIgG1-I253A/H310A/H435A (hIgG1^IHH) (antibody) ASTKGPSVFPLAPSSKSTSGGTAALGCLVKDYFPEPVTVSWNSGALTSGVHTFPAVLQSSGLYSLSSVVTVPSSSLGTQTYICNVNHKPSNTKVDKKVEPKSCDKTHTCPPCPAPELLGGPSVFLFPPKPKDTLMASRTPEVTCVVVDVSHEDPEVKFNWYVDGVEVHNAKTKPREEQYNSTYRVVSVLTVLAQDWLNGKEYKCKVSNKALPAPIEKTISKAKGQPREPQVYTLPPSRDELTKNQVSLTCLVKGFYPSDIAVEWESNGQPENNYKTTPPVLDSDGSFFLYSKLTVDKSRWQQGNVFSCSVMHEALHNAYTQKSLSLSPGK,–,4800,–

# — patent publication US20210139582A1 (published 2021)
